Assay [1] addresses T1, FhuCB wild-type (Escherichia coli, UniProt P07821 1-265; P06972 1-660, red-tris-NTA 2nd generation dye on the His-tag).
T1 construct: FhuC, ATPase subunit, Escherichia coli; whole operon cloned from the genome, FhuD gene deleted; thrombin site after the His-tag; FhuB, membrane subunit, Escherichia coli, 660 residues; also called FhuCB subcomplex; source: E. coli BL21(DE3) C43, purified (TALON, Superose 6 gel filtration) in LMNG; not shown: His-tag, N-terminal, kept; copies: 2 + 1
T1 sequence (looked up) 1: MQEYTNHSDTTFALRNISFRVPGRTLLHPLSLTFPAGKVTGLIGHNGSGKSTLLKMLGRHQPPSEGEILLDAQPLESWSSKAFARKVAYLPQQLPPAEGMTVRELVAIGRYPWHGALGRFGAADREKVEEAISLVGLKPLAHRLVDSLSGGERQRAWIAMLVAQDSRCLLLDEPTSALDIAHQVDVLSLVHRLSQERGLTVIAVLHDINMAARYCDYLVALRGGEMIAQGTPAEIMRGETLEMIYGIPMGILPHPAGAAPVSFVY
T1 sequence (looked up) 2: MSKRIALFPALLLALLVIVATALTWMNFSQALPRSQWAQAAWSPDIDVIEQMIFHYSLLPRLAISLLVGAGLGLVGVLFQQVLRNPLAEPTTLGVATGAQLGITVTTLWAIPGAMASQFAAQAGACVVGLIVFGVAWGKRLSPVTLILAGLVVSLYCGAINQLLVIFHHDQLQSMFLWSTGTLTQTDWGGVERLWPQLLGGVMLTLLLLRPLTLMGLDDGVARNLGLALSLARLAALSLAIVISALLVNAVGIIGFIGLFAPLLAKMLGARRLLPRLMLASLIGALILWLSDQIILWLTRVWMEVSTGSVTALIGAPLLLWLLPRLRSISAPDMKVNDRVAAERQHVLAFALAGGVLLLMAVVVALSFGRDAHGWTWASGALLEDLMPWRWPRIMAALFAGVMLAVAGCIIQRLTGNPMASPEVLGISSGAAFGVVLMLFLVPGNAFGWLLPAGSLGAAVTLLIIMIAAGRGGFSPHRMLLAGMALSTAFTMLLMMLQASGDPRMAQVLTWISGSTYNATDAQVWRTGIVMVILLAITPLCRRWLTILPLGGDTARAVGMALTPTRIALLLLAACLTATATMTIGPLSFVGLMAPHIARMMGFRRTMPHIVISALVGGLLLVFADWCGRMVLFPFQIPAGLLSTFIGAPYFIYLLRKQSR
Nature of the assay: MST; 40 nM FhuCB in detergent, His-tag labelled with red-tris-NTA 2nd generation dye; serial dilution of 30 μM FhuD without substrate; no ATP-Mg; Monolith NT.115pico, 20% LED power, medium MST power. As to conditions: both partners purified.

Assay [2] concerns the target T1, FhuCB wild-type. Nature of the assay: MST; 40 nM FhuCB in detergent, His-tag labelled with red-tris-NTA 2nd generation dye; serial dilution of 30 μM FhuD without substrate; with ATP-MgCl2; Monolith NT.115pico, 20% LED power, medium MST power. Conditions: both partners purified.

Usually Kd stands for the equilibrium constant for the complex coming apart. Low readings indicate a tighter complex, high ones a looser complex.

B1: FhuD (natural protein, Escherichia coli)
chain: AAIDPNRIVALEWLPVELLLALGIVPYGVADTINYRLWVSEPPLPDSVIDVGLRTEPNLELLTEMKPSFMVWSAGYGPSPEMLARIAPGRGFNFSDGKQPLAMARKSLTEMADLLNLQSAAETHLAQYEDFIRSMKPRFVKRGARPLLLTTLIDPRHMLVFGPNSLFQEILDEYGIPNAWQGETNFWGSTAVSIDRLAAYKDVDVLCFDHDNSKDMDALMATPLWQAMPFVRAGRFQRVPAVWFYGATLSAMHFVRVLDNAIGGKA
notes: In 'FhuD-ferrichrome' the protein was loaded with the small molecule ferrichrome; also called FhuD-ferrichrome (when loaded with ferrichrome)
For the molecule B1, the Kd in assay [1] was 1620 nM; in assay [2], 270 nM.

The values are drawn from PMC8660799, “Cryo-EM reveals unique structural features of the FhuCDB Escherichia coli ferrichrome importer” (Communications Biology, 2021).
